Measured values taken from the RNAGym collection of RNA variant scans (doi:10.7554/elife.90254).

B1: LINE1-full (parent)
chain: UACGUAGGUGGUUUUCCCCUGAUAGUGCUAAGGGGGCCUGGAAGUUUGGACUGGGCAGAGCUCAACACAGCGUGGCAAAGUGGCUGUGGCUAGACUGCCUCUCUGGAUUCCUCGUCACUCAGCAGGGCAUCUCUGAGAGAAAUGCC

Variants of: B1
Test: self-cleavage, relative activity (ratio to wild type); higher = more cleavage; in vitro, sequencing; the parent is a self-cleaving ribozyme
For UACGUAGGUGGUUUUCCCCUGAUAGUGCUAAGGGGGCCUGGAAGUUUGGACUGGGCCGAGCUCAACACAGCGUGGCAAAGUGGCUGUGGCUAGACUGCCUCUCUGGAUUCCUCGUCACUCAGCAGGACAUCUCUGAGAGAAAUGCC, the self-cleavage was 0.03. UACGUAGGUGGUUUUCCCCUGAUAGUGCUAAGGGGGCCUGGAAGUUUGGACUGGGCCGAGCUCAACACAGCGUGGCAAAGUGGCUGUGGCUAGACUGCCUCUCUGGAUUCCUCGUCACUCAGCAGGGCAUCUCUGAGAGAGAUGCC showed a self-cleavage of 0.11. UACGUAGGUGGUUUUCCCCUGAUAGUGCUAAGGGGGCCUGGAAGUUUGGACUGGGCGGAGCUCUACACAGCGUGGCAAAGUGGCUGUGGCUAGACUGCCUCUCUGGAUUCCUCGUCACUCAGCAGGGCAUCUCUGAGAGAAAUGCC showed a self-cleavage of 0.3. Variant UACGUAGGUGGUUUUCCCCUGAUAGUGCUAAGGGGGCCUGGAAGUUUGGACUGGGCGGAGCUCGACACAGCGUGGCAAAGUGGCUGUGGCUAGACUGCCUCUCUGGAUUCCUCGUCACUCAGCAGGGCAUCUCUGAGAGAAAUGCC has a self-cleavage of 0.3. UACGUAGGUGGUUUUCCCCUGAUAGUGCUAAGGGGGCCUGGAAGUUUGGACUGGGCCGAGUUCAACACAGCGUGGCAAAGUGGCUGUGGCUAGACUGCCUCUCUGGAUUCCUCGUCACUCAGCAGGGCAUCUCUGAGAGAAAUGCC gave a self-cleavage of 0.05. UACGUAGGUGGUUUUCCCCUGAUAGUGCUAAGGGGGCCUGGAAGUUUGGACUGGGCCGAGCUCAACACAGCGUGGCAAAGUGGCUGUGGCUAGACUUCCUCUCUGGAUUCCUCGUCACUCAGCAGGGCAUCUCUGAGAGAAAUGCC showed a self-cleavage of 0.04. With UACGUAGGUGGUUUUCCCCUGAUAGUGCUAAGGGGGCCUGGAAGUUUGGACUGGGCGGAGCUCAACACAGCGUGGCAAAGUGGCUGUGGCUAGACUGCCUCUCUGGAUUCCUCGUCACUCAGCCGGGCAUCUCUGAGAGAAAUGCC the self-cleavage was 0.91. With UACGUAGGUGGUUUUCCCCUGAUAGUGCUAAGGGGGCCUGGAAGUUUGGACUGGGCCGAGCUCAACACAGCGUGGCAAAGUGGCUGCGGCUAGACUGCCUCUCUGGAUUCCUCGUCACUCAGCAGGGCAUCUCUGAGAGAAAUGCC the self-cleavage was 0. Work on UACGUAGGUGGUUUUCCCCUGAUAGUGCUAAGGGGGCCUGGAAGUUUGGACUGGGCGGGGCUCAACACAGCGUGGCAAAGUGGCUGUGGCUAGACUGCCUCUCUGGAUUCCUCGUCACUCAGCAGGGCAUCUCUGAGAGAAAUGCC yielded a self-cleavage of 0.62. With UACGUAGGUGGUUUUCCCCUGAUAGUGCUAAGGGGGCCUGGAAGUUUGGACUGGGCGGAGCUCAACACAGCGUGGCAAAGUGGCUGUGGCUAGACUGCCUCUCUGGAUUCCUCGUCACUCAGCAGGGCAUCUCUGAGAGAAGUGCC the self-cleavage was 0.84. Work on UACGUAGGUGGUUUUCCCCUGAUAGUGCUAAGGGGGCCUGGAAGUUUGGACUGGGCGGAGCUCAACACAGCGUGGCAAAGUGGCUGUGGCUAGACUGCCUCUCUGGAUUCCUCGUCACUCAGCAGGGCAUCUCUGAGAGAAUUGCC yielded a self-cleavage of 0.38. Work on UACGUAGGUGGUUUUCCCCUGAUAGUGCUAAGGGGGCCUGGAAGUUUGGACUGGGCCGAGCUCAACACAGCGUGGCAAAGUGGCUGUGGCUAGACAGCCUCUCUGGAUUCCUCGUCACUCAGCAGGGCAUCUCUGAGAGAAAUGCC yielded a self-cleavage of 0.01. Work on UACGUAGGUGGUUUUCCCCUGAUAGUGCUAAGGGGGCCUGGAAGUUUGGACUGGGCCGAGCUCAACACAGCGUGGCAAAGUGGCUGUGGCUAGACCGCCUCUCUGGAUUCCUCGUCACUCAGCAGGGCAUCUCUGAGAGAAAUGCC yielded a self-cleavage of 0.08. In the case of UACGUAGGUGGUUUUCCCCUGAUAGUGCUAAGGGGGCCUGGAAGUUUGGACUGGGCCGAGCUCAACACAGCGUGGCAAAGUGGCUGUGGCUAGACUGCCUCUCUGGAUUCCUCGUCACUCAGCAGGGCAUAUCUGAGAGAAAUGCC, the self-cleavage is reported as 0.08. In the case of UACGUAGGUGGUUUUCCCCUGAUAGUGCUAAGGGGGCCUGGAAGUUUGGACUGGGCGGAGCUCAACACAGCGUGGCAUAGUGGCUGUGGCUAGACUGCCUCUCUGGAUUCCUCGUCACUCAGCAGGGCAUCUCUGAGAGAAAUGCC, the self-cleavage is reported as 1.62. Work on UACGUAGGUGGUUUUCCCCUGAUAGUGCUAAGGGGGCCUGGAAGUUUGGACUGGGCCGAGCUCAACACAGCGUGGCAAAGUGGCUGUGGCUAGACUGCCUCUCUGGAUUCCCCGUCACUCAGCAGGGCAUCUCUGAGAGAAAUGCC yielded a self-cleavage of 0.08. For UACGUAGGUGGUUUUCCCCUGAUAGUGCUAAGGGGGCCUGGAAGUUUGGACUGGGCGGAGCUCAACACAGCGUGGCAAAGUGGCUGUGGCUAGGCUGCCUCUCUGGAUUCCUCGUCACUCAGCAGGGCAUCUCUGAGAGAAAUGCC, the self-cleavage was 0.16. UACGUAGGUGGUUUUCCCCUGAUAGUGCUAAGGGGGCCUGGAAGUUUGGACUGGGCGGAGCUCAACACAGCGUGGCAACGUGGCUGUGGCUAGACUGCCUCUCUGGAUUCCUCGUCACUCAGCAGGGCAUCUCUGAGAGAAAUGCC showed a self-cleavage of 0.8. Variant UACGUAGGUGGUUUUCCCCUGAUAGUGCUAAGGGGGCCUGGAAGUUUGGACUGGGCGGAGCUCAACACAGCGUGGCAAGGUGGCUGUGGCUAGACUGCCUCUCUGGAUUCCUCGUCACUCAGCAGGGCAUCUCUGAGAGAAAUGCC has a self-cleavage of 1.32. UACGUAGGUGGUUUUCCCCUGAUAGUGCUAAGGGGGCCUGGAAGUUUGGACUGGGCGGAGCUCAACACAGCGUGGCAAAGUGGCUGUGGCUAGACUGCCUCUCUGGGUUCCUCGUCACUCAGCAGGGCAUCUCUGAGAGAAAUGCC showed a self-cleavage of 1.01. In the case of UACGUAGGUGGUUUUCCCCUGAUAGUGCUAAGGGGGCCUGGAAGUUUGGACUGGGCGGAGCUCAACACGGCGUGGCAAAGUGGCUGUGGCUAGACUGCCUCUCUGGAUUCCUCGUCACUCAGCAGGGCAUCUCUGAGAGAAAUGCC, the self-cleavage is reported as 0.21. With UACGUAGGUGGUUUUCCCCUGAUAGUGCUAAGGGGGCCUGGAAGUUUGGACUGGGCCGAGCUCAACACAGCGUGGCAAAGUGGCUGUGGCUAGACUGCCUCUCUGGAUUCCUCGUCACUCAGCAGGGCACCUCUGAGAGAAAUGCC the self-cleavage was 0.18. UACGUAGGUGGUUUUCCCCUGAUAGUGCUAAGGGGGCCUGGAAGUUUGGACUGGGCGGAGCUCAACACAGCGUGGCAAAGUGGCUGUGGCUUGACUGCCUCUCUGGAUUCCUCGUCACUCAGCAGGGCAUCUCUGAGAGAAAUGCC gave a self-cleavage of 0.3. For UACGUAGGUGGUUUUCCCCUGAUAGUGCUAAGGGGGCCUGGAAGUUUGGACUGGGCGGAGCUCAACACAGCGUGGCAAAGUGGCUGUGGCUGGACUGCCUCUCUGGAUUCCUCGUCACUCAGCAGGGCAUCUCUGAGAGAAAUGCC, the self-cleavage was 0.14. For UACGUAGGUGGUUUUCCCCUGAUAGUGCUAAGGGGGCCUGGAAGUUUGGACUGGGCCGAGCUCAACACAGCGUGGCAAAGUGGCUGUGGCUAGACUGCCUCUCUGGAUUCCUCGUCACUCAGCAGGGCAUCUCUGAGAGAAAAGCC, the self-cleavage was 0.22. Work on UACGUAGGUGGUUUUCCCCUGAUAGUGCUAAGGGGGCCUGGAAGUUUGGACUGGGCGGAGCUCAACGCAGCGUGGCAAAGUGGCUGUGGCUAGACUGCCUCUCUGGAUUCCUCGUCACUCAGCAGGGCAUCUCUGAGAGAAAUGCC yielded a self-cleavage of 0.28. With UACGUAGGUGGUUUUCCCCUGAUAGUGCUAAGGGGGCCUGGAAGUUUGGACUGGGCGGAGCUCACCACAGCGUGGCAAAGUGGCUGUGGCUAGACUGCCUCUCUGGAUUCCUCGUCACUCAGCAGGGCAUCUCUGAGAGAAAUGCC the self-cleavage was 0.05. Work on UACGUAGGUGGUUUUCCCCUGAUAGUGCUAAGGGGGCCUGGAAGUUUGGACUGGGCGGAGCUCAACACAGCGUGGCAAAGUGGCUGUGGCUAGACUGCCUCUCUGGAUUCCUCGUCACUCUGCAGGGCAUCUCUGAGAGAAAUGCC yielded a self-cleavage of 1. UACGUAGGUGGUUUUCCCCUGAUAGUGCUAAGGGGGCCUGGAAGUUUGGACUGGGCGGAGCUCAACACAGCGUGGCAAAGUGGCUGUGGCUAGACUGCCUCUCUGGAUUCCUCGUCACUCAGCAGGGCAUCUCUGAGCGAAAUGCC gave a self-cleavage of 1.13. UACGUAGGUGGUUUUCCCCUGAUAGUGCUAAGGGGGCCUGGAAGUUUGGACUGGGCGGAGCUCAACACAGCGUGGCAAAGUGGCUGUGGCUAGACUGCCUCUCUGGAUUCCUCGUCACUCAGCAGGGCCUCUCUGAGAGAAAUGCC showed a self-cleavage of 1.33. UACGUAGGUGGUUUUCCCCUGAUAGUGCUAAGGGGGCCUGGAAGUUUGGACUGGGCGGAGCUCAACACAGCGUGGCUAAGUGGCUGUGGCUAGACUGCCUCUCUGGAUUCCUCGUCACUCAGCAGGGCAUCUCUGAGAGAAAUGCC showed a self-cleavage of 0.58. In the case of UACGUAGGUGGUUUUCCCCUGAUAGUGCUAAGGGGGCCUGGAAGUUUGGACUGGGCGGAGCUCAACACAGCGUGGCGAAGUGGCUGUGGCUAGACUGCCUCUCUGGAUUCCUCGUCACUCAGCAGGGCAUCUCUGAGAGAAAUGCC, the self-cleavage is reported as 1.68. UACGUAGGUGGUUUUCCCCUGAUAGUGCUAAGGGGGCCUGGAAGUUUGGACUGGGCGGAGCUCAACACAGCGUGGCAAAGUGGCUGUGGCUAGACUGCCUCUCUGGAUUCCUCGUCACUCAGCAGGGCAUCUCUGAGAGGAAUGCC gave a self-cleavage of 0.91. In the case of UACGUAGGUGGUUUUCCCCUGAUAGUGCUAAGGGGGCCUGGAAGUUUGGACUGGGCGGAGCUCAACACAGCGUGGCAAAGUGGCUGUGGCUAGACUGCCUCUCUGGAUUCCUCGUCUCUCAGCAGGGCAUCUCUGAGAGAAAUGCC, the self-cleavage is reported as 0.79. Variant UACGUAGGUGGUUUUCCCCUGAUAGUGCUAAGGGGGCCUGGAAGUUUGGACUGGGCCGAGCUCAACACAGCGUGGCAAAGUGGCUGUGGCCAGACUGCCUCUCUGGAUUCCUCGUCACUCAGCAGGGCAUCUCUGAGAGAAAUGCC has a self-cleavage of 0. Variant UACGUAGGUGGUUUUCCCCUGAUAGUGCUAAGGGGGCCUGGAAGUUUGGACUGGGCCGAGCUCAACACAGCGUGGCAAAGCGGCUGUGGCUAGACUGCCUCUCUGGAUUCCUCGUCACUCAGCAGGGCAUCUCUGAGAGAAAUGCC has a self-cleavage of 0.04. Work on UACGUAGGUGGUUUUCCCCUGAUAGUGCUAAGGGGGCCUGGAAGUUUGGACUGGGCCGAGCUCAACACAGCGUGGCAAAGGGGCUGUGGCUAGACUGCCUCUCUGGAUUCCUCGUCACUCAGCAGGGCAUCUCUGAGAGAAAUGCC yielded a self-cleavage of 0.16. For UACGUAGGUGGUUUUCCCCUGAUAGUGCUAAGGGGGCCUGGAAGUUUGGACUGGGCCGAGCUCAACACAGCGUGGCAAAGUGGCUGUGGCUAGACUGCCUCACUGGAUUCCUCGUCACUCAGCAGGGCAUCUCUGAGAGAAAUGCC, the self-cleavage was 0.06. Work on UACGUAGGUGGUUUUCCCCUGAUAGUGCUAAGGGGGCCUGGAAGUUUGGACUGGGCGGAGCUCAACACAGCGUGGCAAAGUGGCUGUGGCUAGACUGCCUCUCUGGAUUCCUCGUCACUCAGCAGGGCAUCUCUGGGAGAAAUGCC yielded a self-cleavage of 1.33.
